From patent US20240350653A1 (JOINT STOCK COMPANY GENERIUM, published 2024)
Where a chain is given by its changes, count along the chain named.

B1: HIR-FAB-IDS (SEQ ID NO: 8 and SEQ ID NO: 12) (Fab)
light: DIQMTQSPSSLSASVGDRVTITCRASQDIGGNLYWYQQKPGKAPKLLIYATSSLDSGVPSRFSGSGSGTDFTLTISSLQPEDVATYYCLQYSSSPWTFGQGTKVEIKRTVAAPSVFIFPPSDEQLKSGTASVVCLLNNFYPREAKVQWKVDNALQSGNSQESVTEQDSKDSTYSLSSTLTLSKADYEKHKVYACEVTHQGLSSPVTKSFNRGEC
heavy: EVQLVESGGGLVQPGRSLRLSCAASGFTFTNYDIHWVRQAPGKGLEWVSWIYPGDGSTKYNEKFKGRFTISRDNAKNSLYLQMNSLRAEDTAVYYCAKEWAYWGQGTLVTVSSASTKGPSVFPLAPSSKSTSGGTAALGCLVKDYFPEPVTVSWNSGALTSGVHTFPAVLQSSGLYSLSSVVTVPSSSLGTQTYICNVNHKPSNTKVDKKVEPKSCDKTHLSSSETQANSTTDALNVLLIIVDDLRPSLGCYGDKLVRSPNIDQLASHSLLFQNAFAQQAVCAPSRVSFLTGRRPDTTRLYDFNSYWRVHAGNFSTIPQYFKENGYVTMSVGKVFHPGISSNHTDDSPYSWSFPPYHPSSEKYENTKTCRGPDGELHANLLCPVDVLDVPEGTLPDKQSTEQAIQLLEKMKTSASPFFLAVGYHKPHIPFRYPKEFQKLYPLENITLAPDPEVPDGLPPVAYNPWMDIRQREDVQALNISVPYGPIPVDFQRKIRQSYFASVSYLDTQVGRLLSALDDLQLANSTIIAFTSDHGWALGEHGEWAKYSNFDVATHVPLIFYVPGRTASLPEAGEKLFPYLDPFDSASQLMEPGRQSMDLVELVSLFPTLAGLAGLQVPPRCPVPSFHVELCREGKNLLKHFRFRDLEEDPYLPGNPRELIAYSQYPRPSDIPQWNSDKPSLKDIKIMGYSIRTIDYRYTVWVGFNPDEFLANFSDIHAGELYFVDSDPLQDHNMYNDSQGGDLFQLLMP
notes: Variant of the Fab-iduronate-2-sulfatase fusion
B2: HIR-FAB-IDS (SEQ ID NO: 9 and SEQ ID NO: 13) (Fab)
light: EIVLTQSPDFQSVTPKEKVTITCRASQDIGGNLYWYQQKPDQSPKLLIKATSSLDSGVPSRFSGSGSGTDFTLTINSLEAEDAAAYYCLQYSSSPWTFGPGTKVDIKRTVAAPSVFIFPPSDEQLKSGTASVVCLLNNFYPREAKVQWKVDNALQSGNSQESVTEQDSKDSTYSLSSTLTLSKADYEKHKVYACEVTHQGLSSPVTKSFNRGEC
heavy: B1 heavy with E1Q, L11V, T30S, S49A, A75S, S78T, S85G, K98R, K210R
notes: as for B1
B3: HIR-FAB-IDS (SEQ ID NO: 10 and SEQ ID NO: 14) (Fab)
light: B1 light with M4L, L46V, V83F
heavy: EVQLVESGGGLVQPGGSLRLSCAASGYDFTNYDIHWVRQAPGKGLEWVGWIYPGDGSTKYNEKFKGRFTFSLDTSKSTAYLQMNSLRAEDTAVYYCAKEWAYWGQGTLVTVSSASTKGPSVFPLAPSSKSTSGGTAALGCLVKDYFPEPVTVSWNSGALTSGVHTFPAVLQSSGLYSLSSVVTVPSSSLGTQTYICNVNHKPSNTKVDKKVEPKSCDKTHLSSSETQANSTTDALNVLLIIVDDLRPSLGCYGDKLVRSPNIDQLASHSLLFQNAFAQQAVCAPSRVSFLTGRRPDTTRLYDFNSYWRVHAGNFSTIPQYFKENGYVTMSVGKVFHPGISSNHTDDSPYSWSFPPYHPSSEKYENTKTCRGPDGELHANLLCPVDVLDVPEGTLPDKQSTEQAIQLLEKMKTSASPFFLAVGYHKPHIPFRYPKEFQKLYPLENITLAPDPEVPDGLPPVAYNPWMDIRQREDVQALNISVPYGPIPVDFQRKIRQSYFASVSYLDTQVGRLLSALDDLQLANSTIIAFTSDHGWALGEHGEWAKYSNFDVATHVPLIFYVPGRTASLPEAGEKLFPYLDPFDSASQLMEPGRQSMDLVELVSLFPTLAGLAGLQVPPRCPVPSFHVELCREGKNLLKHFRFRDLEEDPYLPGNPRELIAYSQYPRPSDIPQWNSDKPSLKDIKIMGYSIRTIDYRYTVWVGFNPDEFLANFSDIHAGELYFVDSDPLQDHNMYNDSQGGDLFQLLMP
notes: as for B1
B4: HIR-FAB-IDS (SEQ ID NO: 11 and SEQ ID NO: 15) (Fab)
light: EIVLTQSPATLSLSPGERATLSCRASQDIGGNLYWYQQKPGQAPRLLIYATSSLDSGIPARFSGSGSGTDFTLTISSLEPEDFAVYYCLQYSSSPWTFGQGTRLEIKRTVAAPSVFIFPPSDEQLKSGTASVVCLLNNFYPREAKVQWKVDNALQSGNSQESVTEQDSKDSTYSLSSTLTLSKADYEKHKVYACEVTHQGLSSPVTKSFNRGEC
heavy: B1 heavy with T30N, N77K, V93L, L108T, S127G, K129S, S130K, T131S, S132T, G133S
notes: as for B1
B5: HIR-FAB-IDS (SEQ ID NO: 2 and SEQ ID NO: 4) (Fab)
light: DIQMTQSPSSLSASLGERVSLTCRASQDIGGNLYWLQQGPDGTIKRLIYATSSLDSGVPKRFSGSRSGSDYSLTISSLESEDFVDYYCLQYSSSPWTFGGGTKMEIKRTVAAPSVFIFPPSDEQLKSGTASVVCLLNNFYPREAKVQWKVDNALQSGNSQESVTEQDSKDSTYSLSSTLTLSKADYEKHKVYACEVTHQGLSSPVTKSFNRGEC
heavy: QVQLQQSGPELVKPGALVKISCKASGYTFTNYDIHWVKQRPGQGLEWIGWIYPGDGSTKYNEKFKGKATLTADKSSSTAYMHLSSLTSEKSAVYFCAREWAYWGQGTLVTVSAASTKGPSVFPLAPSSKSTSGGTAALGCLVKDYFPEPVTVSWNSGALTSGVHTFPAVLQSSGLYSLSSVVTVPSSSLGTQTYICNVNHKPSNTKVDKKVEPKSCDKTHLSSSETQANSTTDALNVLLIIVDDLRPSLGCYGDKLVRSPNIDQLASHSLLFQNAFAQQAVCAPSRVSFLTGRRPDTTRLYDFNSYWRVHAGNFSTIPQYFKENGYVTMSVGKVFHPGISSNHTDDSPYSWSFPPYHPSSEKYENTKTCRGPDGELHANLLCPVDVLDVPEGTLPDKQSTEQAIQLLEKMKTSASPFFLAVGYHKPHIPFRYPKEFQKLYPLENITLAPDPEVPDGLPPVAYNPWMDIRQREDVQALNISVPYGPIPVDFQRKIRQSYFASVSYLDTQVGRLLSALDDLQLANSTIIAFTSDHGWALGEHGEWAKYSNFDVATHVPLIFYVPGRTASLPEAGEKLFPYLDPFDSASQLMEPGRQSMDLVELVSLFPTLAGLAGLQVPPRCPVPSFHVELCREGKNLLKHFRFRDLEEDPYLPGNPRELIAYSQYPRPSDIPQWNSDKPSLKDIKIMGYSIRTIDYRYTVWVGFNPDEFLANFSDIHAGELYFVDSDPLQDHNMYNDSQGGDLFQLLMP
notes: Fab fragment of an IgG1 antibody to the human insulin receptor, fused to iduronate-2-sulfatase; also called rIDS-FAB-HI; rHI-FAB-IDS
B6: HIR-FAB-IDS (SEQ ID NO: 2 and SEQ ID NO: 5) (Fab)
light: B5 light
heavy: QVQLQQSGPELVKPGALVKISCKASGYTFTNYDIHWVKQRPGQGLEWIGWIYPGDGSTKYNEKFKGKATLTADKSSSTAYMHLSSLTSEKSAVYFCAREWAYWGQGTLVTVSAASTKGPSVFPLAPSSKSTSGGTAALGCLVKDYFPEPVTVSWNSGALTSGVHTFPAVLQSSGLYSLSSVVTVPSSSLGTQTYICNVNHKPSNTKVDKKVEPKSCDKTHGGGGSGGGGSGGGGSSETQANSTTDALNVLLIIVDDLRPSLGCYGDKLVRSPNIDQLASHSLLFQNAFAQQAVCAPSRVSFLTGRRPDTTRLYDFNSYWRVHAGNFSTIPQYFKENGYVTMSVGKVFHPGISSNHTDDSPYSWSFPPYHPSSEKYENTKTCRGPDGELHANLLCPVDVLDVPEGTLPDKQSTEQAIQLLEKMKTSASPFFLAVGYHKPHIPFRYPKEFQKLYPLENITLAPDPEVPDGLPPVAYNPWMDIRQREDVQALNISVPYGPIPVDFQRKIRQSYFASVSYLDTQVGRLLSALDDLQLANSTIIAFTSDHGWALGEHGEWAKYSNFDVATHVPLIFYVPGRTASLPEAGEKLFPYLDPFDSASQLMEPGRQSMDLVELVSLFPTLAGLAGLQVPPRCPVPSFHVELCREGKNLLKHFRFRDLEEDPYLPGNPRELIAYSQYPRPSDIPQWNSDKPSLKDIKIMGYSIRTIDYRYTVWVGFNPDEFLANFSDIHAGELYFVDSDPLQDHNMYNDSQGGDLFQLLMP
notes: as for B1

Assays:
[1] = target: mouse insulin receptor (mInsR, R&D Systems, Inc., Cat. No. 7544-MR) (mouse) (UniProt P15208); experiment: ELISA on mouse insulin receptor
[2] = target: Human Insulin Receptor protein fragment (Abcam cat #ab200510) (human) (UniProt P06213); experiment: ELISA on human insulin receptor fragment, relative to 83-14 mAb
[3] = target: Human Insulin Receptor protein fragment (Abcam cat #ab200510) (human) (UniProt P06213); experiment: ELISA on human insulin receptor fragment
[4] = target: T1, mouse insulin receptor (mInsR, R&D Systems, Inc., Cat. No. 7544-MR) (mouse, UniProt P15208 28-946, limits assumed); experiment: ELISA on mouse insulin receptor
T1 construct: extracellular domain; Bought protein; also called extracellular domain of the mouse insulin receptor

[5] = target: T2, Human Insulin Receptor protein fragment (Abcam cat #ab200510) (human, UniProt P06213-2 28-944, limits assumed); experiment: ELISA on human insulin receptor fragment
T2 construct: domain: extracellular domain of the alpha subunit; Bought fragment; also called HIR; extracellular domain of the alpha subunit of the human insulin receptor

[6] = target: T2, Human Insulin Receptor protein fragment …; experiment: ELISA on human insulin receptor fragment, relative to 83-14 mAb

Molecule	EC50 [1] [µg/mL]	Receptor binding from antibody 83-14 mAb, % [2] [%]	EC50 [3] [µg/mL]	EC50 [4] [µg/mL]	Receptor binding, % [4] [%]	EC50 [5] [µg/mL]	Receptor binding from antibody 83-14 mAb, % [6] [%]
HIR-MAB-IDS (antibody)	> 0.8	126	0.0262	–	–	–	–
Mouse Anti-Human Insulin Receptor Clone 83-14 mAb (Cell sciences, cat# MAI1) (antibody)	> 0.8	100	0.0331	–	–	–	–
INSR/Insulin Receptor alpha Antibody 83-14 (Life technologies, cat#AHR0221)	> 0.8	102	0.0321	–	–	–	–
B1	–	–	–	> 0.8	0	0.121	27
B2	–	–	–	> 0.8	0	0.0604	55
B3	–	–	–	> 0.8	0	0.0351	94
B4	–	–	–	> 0.8	0	0.156	21
B5	–	–	–	> 0.8	0	0.0243	136
B6	–	–	–	> 0.8	0	0.0503	66
